Test results published in patent US20220380471A1 (US Dept. of Health and Human Services, published 2022).

B1: RWC4 (VHH)
VHH: EVQLVESGGGSVQAGGSLRLSCVASEDSTSAMCMGWFRQAPGKEREGVACINPTGEVTWYGDSVKGRFTISRDTVKKIVYLQMNSLKPEDTAMYYCAARVTYGGDWSTDTDYEYWGQGTQVTVSS
notes: Camel VHH; tag not described; also called camel antibody RWC4
B2: RWG8 (VHH)
VHH: DVQLVESGGGLVQPGGSLRLSCAASGFTFSRYWMGWFRQAPGKGVEWVSTINSGGGSTYYADSVKGRFTISRDNAKNTLYLQLNNLKTEDTAMYYCAKEQWRTGSRGQGTQVTVSS
notes: Camel VHH; tag not described; also called camel antibody RWG8
B3: RWB12 (VHH)
VHH: QVQLVESGGGSVQVGGSLRLSCAASGFTYNSYSVGWFRQAPGKEREGVAAINSGGSSTYYAASVKGRFTISRDNAKNTVYLQMNSLKPEDTAMYYCAARSPSPLTFQTRTLREDSYNYWGQGTQVTVSS
notes: Camel VHH; tag not described; also called camel antibody RWB12
B4: RWG4 (VHH)
VHH: QVQLVQSGGGLVQPGGSLRLSCAASGFTFSVYWFYWVRQAPRQGLEWVSTIASNGSTYYSDSVKGRFTISRDNAKNTVYLQMNSLKPEDTAVYYCVSDPDYYSDYERAYKFWAQGTQVTVSS
notes: Camel VHH; tag not described; also called camel antibody RWG4

Biological target: T1, recombinant human B7H3-Fc protein (human, UniProt Q5ZPR3 29-466, limits assumed)
T1 construct: 154 kDa non-reduced, 77 kDa reduced; also called hB7H3-Fc; not shown: Fc part
T1 sequence (looked up): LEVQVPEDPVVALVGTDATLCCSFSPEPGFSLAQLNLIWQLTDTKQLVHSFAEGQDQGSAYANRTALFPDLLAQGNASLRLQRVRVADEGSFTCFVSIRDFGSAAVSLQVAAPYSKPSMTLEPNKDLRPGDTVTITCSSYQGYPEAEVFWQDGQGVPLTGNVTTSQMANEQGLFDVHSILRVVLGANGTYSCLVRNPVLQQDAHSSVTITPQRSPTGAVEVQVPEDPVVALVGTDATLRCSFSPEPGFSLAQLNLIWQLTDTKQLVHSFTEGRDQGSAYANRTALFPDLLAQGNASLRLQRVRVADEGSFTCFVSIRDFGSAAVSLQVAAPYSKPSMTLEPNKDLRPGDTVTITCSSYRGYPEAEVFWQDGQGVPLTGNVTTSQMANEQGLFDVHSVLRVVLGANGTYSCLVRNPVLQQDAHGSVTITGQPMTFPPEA
Test: phage ELISA
Summary of the method: (§1)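 Camel VHH phage were panned on recombinant B7H3-Fc protein for 3 rounds, using libraries from eight individual camels. Binding of the selected phage to immobilised antigens (human and other-species B7H3 or control proteins) was measured by phage ELISA and recorded as the ELISA signal.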

Point of comparison: B4, ELISA signal 2.13. Against it:
- B1 — higher, 2.66
- B2 — higher, 2.52
- B3 — higher, 2.48

Biological target: IgG control
Test: phage ELISA
Summary of the method: as §1

Point of comparison: B2, ELISA signal 0.101. Against it:
- B1 — lower, 0.0777
- B3 — higher, 0.164
- B4 — higher, 0.103

Biological target: T2, monkey B7H3-His (monkey)
T2 chain: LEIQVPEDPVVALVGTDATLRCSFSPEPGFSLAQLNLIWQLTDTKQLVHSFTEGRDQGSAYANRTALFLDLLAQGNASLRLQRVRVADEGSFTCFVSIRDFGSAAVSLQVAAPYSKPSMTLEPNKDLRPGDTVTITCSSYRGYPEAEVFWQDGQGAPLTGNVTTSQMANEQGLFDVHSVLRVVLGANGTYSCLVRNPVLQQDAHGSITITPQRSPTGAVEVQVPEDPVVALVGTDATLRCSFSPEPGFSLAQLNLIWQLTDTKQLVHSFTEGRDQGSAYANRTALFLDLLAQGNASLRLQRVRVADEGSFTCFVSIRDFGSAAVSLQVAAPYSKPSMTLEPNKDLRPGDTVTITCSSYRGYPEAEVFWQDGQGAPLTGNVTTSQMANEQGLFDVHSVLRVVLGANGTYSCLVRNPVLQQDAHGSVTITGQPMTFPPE
Test: ELISA, purified VHH
Summary of the method: (§2)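 Camel VHH nanobodies were isolated by phage panning on recombinant B7H3-Fc and then purified. Their binding to immobilised recombinant proteins (B7H3 fusion proteins and non-B7H3 control proteins) was measured by ELISA and recorded as the ELISA signal.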

Point of comparison: B4, ELISA signal 1.81. Against it:
- B1 — lower, 0.288
- B2 — lower, 0.117
- B3 — lower, 0.164

Biological target: PD-L1
Test: ELISA, purified VHH, cross-reaction

Sequence of PD-L1 (Q9NZQ7 whole entry): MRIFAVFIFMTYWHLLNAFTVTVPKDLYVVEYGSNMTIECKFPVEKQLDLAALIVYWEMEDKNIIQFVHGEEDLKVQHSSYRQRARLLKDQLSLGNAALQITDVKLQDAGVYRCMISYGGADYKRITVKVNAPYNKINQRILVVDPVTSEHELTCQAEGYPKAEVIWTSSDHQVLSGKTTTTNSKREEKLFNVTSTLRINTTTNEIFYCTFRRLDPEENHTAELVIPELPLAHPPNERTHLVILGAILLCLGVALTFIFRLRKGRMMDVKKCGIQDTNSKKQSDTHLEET

Point of comparison: B1, ELISA signal 0.043. Against it:
- B2 — higher, 0.0715
- B3 — higher, 0.0454
- B4 — higher, 0.0614

Biological target: T3, human B7H3 (human, UniProt Q5ZPR3 29-466, limits assumed)
T3 construct: also called human B7H3 protein
T3 sequence (looked up): T1 sequence (looked up)
Test: ELISA; row Human; well 1 of 3
Summary of the method: as §2

Point of comparison: B3, “ELISA reading (name not given)” value 0.181. Against it:
- B1 — higher, 0.976
- B2 — lower, 0.136

Biological target: T3, human B7H3
Test: ELISA; row Human; well 3 of 3
Summary of the method: as §2

Point of comparison: B1, “ELISA reading (name not given)” value 0.938. Against it:
- B2 — lower, 0.164
- B3 — lower, 0.199

Biological target: HN3-Fc
Test: ELISA; row HN3-Fc; well 2 of 3
Summary of the method: as §2

Point of comparison: B3, “ELISA reading (name not given)” value 0.0616. Against it:
- B1 — lower, 0.046
- B2 — lower, 0.0514

Biological target: T1, recombinant human B7H3-Fc protein
Test: ELISA; row B7H3-Fc; well 1 of 3
Summary of the method: as §2

Point of comparison: B2, “ELISA reading (name not given)” value 1.97. Against it:
- B1 — higher, 2.01
- B3 — lower, 0.878

Biological target: T1, recombinant human B7H3-Fc protein
Test: ELISA; row B7H3-Fc; well 3 of 3
Summary of the method: as §2

Point of comparison: B2, “ELISA reading (name not given)” value 1.87. Against it:
- B1 — higher, 1.95
- B3 — lower, 0.952

Biological target: B7H3 R&D
Test: ELISA; row B7H3 R&D; well 3 of 3
Summary of the method: as §2

Point of comparison: B2, “ELISA reading (name not given)” value 0.0646. Against it:
- B1 — higher, 0.156
- B3 — higher, 0.0955

Biological target: T4, hB7H3-His (human, UniProt Q5ZPR3 29-461, limits assumed)
T4 construct: not shown: His tag
T4 sequence (looked up): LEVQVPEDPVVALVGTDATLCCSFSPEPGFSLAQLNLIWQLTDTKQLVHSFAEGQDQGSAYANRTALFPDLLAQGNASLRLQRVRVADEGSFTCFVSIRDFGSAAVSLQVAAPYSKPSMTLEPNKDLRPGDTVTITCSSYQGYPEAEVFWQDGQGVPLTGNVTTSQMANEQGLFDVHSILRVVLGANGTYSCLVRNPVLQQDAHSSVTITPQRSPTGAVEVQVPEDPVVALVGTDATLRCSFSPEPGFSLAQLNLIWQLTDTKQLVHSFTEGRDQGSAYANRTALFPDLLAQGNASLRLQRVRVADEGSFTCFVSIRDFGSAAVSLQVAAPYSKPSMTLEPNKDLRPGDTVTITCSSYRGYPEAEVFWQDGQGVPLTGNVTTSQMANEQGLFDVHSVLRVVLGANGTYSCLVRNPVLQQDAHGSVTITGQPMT
Test: ELISA; row B7H3-his; well 2 of 3
Summary of the method: as §2

Point of comparison: B3, “ELISA reading (name not given)” value 0.0595. Against it:
- B1 — higher, 0.0879
- B2 — higher, 0.0686

Biological target: T4, hB7H3-His
Test: ELISA; row B7H3-his; well 3 of 3
Summary of the method: as §2

Point of comparison: B2, “ELISA reading (name not given)” value 0.0636. Against it:
- B1 — higher, 0.0811
- B3 — higher, 0.0946

Biological target: T5, B7H3 (CD276) on MC38-CD276+ cells
T5 construct: whole, on cells; MC38-CD276KO cells served as the negative control; also called MC38-B7H3+
T5 sequence (Q5ZPR3 1-534, species assumed, looked up): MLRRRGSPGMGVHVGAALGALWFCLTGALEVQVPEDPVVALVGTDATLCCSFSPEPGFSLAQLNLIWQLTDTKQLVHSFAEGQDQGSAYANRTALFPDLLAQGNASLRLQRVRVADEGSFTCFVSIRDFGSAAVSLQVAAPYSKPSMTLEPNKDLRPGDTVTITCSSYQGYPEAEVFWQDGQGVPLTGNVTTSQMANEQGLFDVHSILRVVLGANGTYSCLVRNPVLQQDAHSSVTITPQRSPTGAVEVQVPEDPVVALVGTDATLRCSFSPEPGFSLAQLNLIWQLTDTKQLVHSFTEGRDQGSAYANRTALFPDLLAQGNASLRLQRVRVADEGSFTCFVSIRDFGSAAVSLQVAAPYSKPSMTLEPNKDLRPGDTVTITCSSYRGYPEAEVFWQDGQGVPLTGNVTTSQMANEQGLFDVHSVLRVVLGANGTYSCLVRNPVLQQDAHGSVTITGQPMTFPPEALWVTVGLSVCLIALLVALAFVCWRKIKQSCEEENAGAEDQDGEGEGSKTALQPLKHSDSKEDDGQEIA
Test: flow cytometry on MC38-CD276+ cells, VHH at 50 ug/ml

Point of comparison: B3, Positive rates 12%. Against it:
- B1 — higher, 98.8%
- B2 — higher, 26.5%
- B4 — higher, 91.5%
